Test results published in patent US20260201038A1 (CELLABMED, published 2026).

Columns and labels:
[1] = target: B7-H1 (UniProt Q9NZQ7 19-239); test: indirect ELISA, B7-H1 coated at 1 ug/mL, absorbance at 450 nm
Experimental: [The procedure below names another target; the source lists this target under the same test.] (§1) The binding ability of 2D IgG prepared in Example 2 for recombinant B7-H3 protein was investigated by indirect ELISA. For indirect ELISA, recombinant human 4lg B7-H3, recombinant human 2lg B7-H3 and recombinant mouse B7-H3 were diluted respectively to 1 μg/mL in 50 μL of PBS and adsorbed overnight onto a 96-well immunoplate (Corning, USA) by storing at 4° C. After reaction with a buffer solution containing 3% bovine serum albumin at room temperature for 1 hour, followed by washing 3 times with a buffer solution containing 0.5% Tween 20, each well was treated with 50 μL of the antibodies diluted serially (0.0001, 0.0003, 0.001, 0.003, 0.01, 0.03, 0.1, 0.3, 1, 3 and 10 nM). For antigen-antibody binding, the mixture was reacted at room temperature for 2 hours, and then washed 3 times with a buffer solution containing 0.5% Tween 20. After treating each well with 50 μL of anti-human immunoglobulin Fc-HRP antibodies (Jackson Immunoresearch, USA) diluted to 1:3,000, reaction was conducted at room temperature for 1 hour. […] As a result of measuring absorbance at 450 nm using a spectrophotometer (Biotek, USA), it was confirmed that 2D IgG binds to B7-H3, and the binding ability was in the order of 4lg B7-H3, 2lg B7-H3 and mouse B7-H3 (FIG. 2a). […]

[2] = target: T1, B7-H2 (UniProt O75144 19-256, limits assumed); test: indirect ELISA, B7-H2 coated at 1 ug/mL, absorbance at 450 nm
T1 sequence (looked up): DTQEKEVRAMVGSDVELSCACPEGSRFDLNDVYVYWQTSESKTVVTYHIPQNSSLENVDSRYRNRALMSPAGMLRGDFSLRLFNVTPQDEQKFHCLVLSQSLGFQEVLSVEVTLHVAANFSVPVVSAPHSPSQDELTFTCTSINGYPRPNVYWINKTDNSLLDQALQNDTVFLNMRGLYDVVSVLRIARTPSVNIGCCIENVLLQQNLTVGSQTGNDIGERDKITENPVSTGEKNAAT
Experimental: [The procedure below names another target; the source lists this target under the same test.] as §1

[3] = target: T2, B7-H4 (UniProt Q7Z7D3 25-258, limits assumed); test: indirect ELISA, B7-H4 coated at 1 ug/mL, absorbance at 450 nm
T2 sequence (looked up): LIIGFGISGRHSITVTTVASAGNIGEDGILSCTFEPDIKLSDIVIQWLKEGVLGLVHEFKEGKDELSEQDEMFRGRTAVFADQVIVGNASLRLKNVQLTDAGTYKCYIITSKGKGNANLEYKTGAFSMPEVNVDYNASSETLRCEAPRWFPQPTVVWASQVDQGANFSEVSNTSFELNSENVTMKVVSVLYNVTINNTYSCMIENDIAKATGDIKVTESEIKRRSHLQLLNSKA
Experimental: [The procedure below names another target; the source lists this target under the same test.] as §1

[4] = target: B7-H3 on human cancer cells (human) (UniProt Q5ZPR3); test: flow cytometry on A172 brain tumor cells; control (secondary antibody only) < 25%
[5] = target: B7-H3 on human cancer cells (human) (UniProt Q5ZPR3); test: flow cytometry on HepG2 liver cancer cells; control (secondary antibody only) < 10%
[6] = target: T3, TGALEVQVPEDPVVA; test: peptide microarray, 15-mers of human 4Ig B7-H3; panel Ig-like-V type 1
T3 construct: 15-mer of human 4Ig B7-H3 on the peptide microarray, panel Ig-like-V type 1
T3 peptide: TGALEVQVPEDPVVA
Experimental: (§2) It was confirmed that G2D IgG has linear epitopes since G2D was verified to recognize 4lg B7-H3 through western blot (FIG. 10a). Therefore, linear epitope mapping was conducted by Pepperprint GmbH (Germany). After preparing a peptide microarray from the 15 4lg B7-H3 amino acids with 14-amino acid overlaps, the antibodies binding to peptides were identified using secondary antibodies (FIG. 10b). As a result, it was confirmed that G2D IgG binds to a peptide having a sequence of EVQVP (FIG. 10c). EVQVP is located in the Ig-like V-type1 and Ig-like V-type2 domains of 4lg B7-H3 (FIGS. 10d and 10e). When the epitopes of the control antibody enoblituzumab were identified by the same method, it was confirmed that the epitopes include the sequence of GYPEAE (FIG. 10b), and GYPEAE is located in the Ig-like C2-type1 and Ig-like C2-type2 domains of 4lg B7-H3 (FIGS. 10d and 10e). As a result, it was confirmed that G2D IgG and the control antibody enoblituzumab have different epitopes.

[7] = target: T4, LEVQVPEDPVVALVG; test: as above
T4 construct: 15-mer of human 4Ig B7-H3 on the peptide microarray, panel Ig-like-V type 1
T4 peptide: LEVQVPEDPVVALVG
Experimental: as §2

[8] = target: T5, LTGALEVQVPEDPVV; test: as above
T5 construct: 15-mer of human 4Ig B7-H3 on the peptide microarray, panel Ig-like-V type 1
T5 peptide: LTGALEVQVPEDPVV
Experimental: as §2

[9] = target: B7-H3 on human cancer cells (human) (UniProt Q5ZPR3); test: flow cytometry on A2780 ovarian cancer cells; control (secondary antibody only) < 5%
[10] = target: B7-H3 on human cancer cells (human) (UniProt Q5ZPR3); test: flow cytometry on PC-3 prostate cancer cells; control (secondary antibody only) < 20%
[11] = target: B7-H3 on human cancer cells (human) (UniProt Q5ZPR3); test: flow cytometry on HT29 colorectal cancer cells; control (secondary antibody only) < 15%
[12] = target: B7-H3 on human cancer cells (human) (UniProt Q5ZPR3); test: flow cytometry on MDA-MB-231 breast cancer cells; control (secondary antibody only) < 5%
[13] = target: B7-H3 on human cancer cells (human) (UniProt Q5ZPR3); test: flow cytometry on Panc-1 pancreatic cancer cells; control (secondary antibody only) < 15%
[14] = target: mouse B7-H3 expressed on Raji cells (mouse) (UniProt Q8VE98); test: flow cytometry on Raji cells expressing mouse B7-H3; the vector control Raji cells show < 10%
Chain of mouse B7-H3 expressed on Raji cells (mouse) (Q8VE98 other isoform, or with tags, fused parts or gaps, form in doubt): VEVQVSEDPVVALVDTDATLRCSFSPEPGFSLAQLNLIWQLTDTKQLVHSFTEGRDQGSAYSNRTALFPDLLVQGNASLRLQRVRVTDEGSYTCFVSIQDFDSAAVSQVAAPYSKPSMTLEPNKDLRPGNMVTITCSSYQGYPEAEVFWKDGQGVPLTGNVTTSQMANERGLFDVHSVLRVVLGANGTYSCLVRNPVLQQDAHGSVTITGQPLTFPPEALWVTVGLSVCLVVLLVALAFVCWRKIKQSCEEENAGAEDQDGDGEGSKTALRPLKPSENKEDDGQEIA

Chain of B7-H1 (Q9NZQ7 19-239 limits assumed): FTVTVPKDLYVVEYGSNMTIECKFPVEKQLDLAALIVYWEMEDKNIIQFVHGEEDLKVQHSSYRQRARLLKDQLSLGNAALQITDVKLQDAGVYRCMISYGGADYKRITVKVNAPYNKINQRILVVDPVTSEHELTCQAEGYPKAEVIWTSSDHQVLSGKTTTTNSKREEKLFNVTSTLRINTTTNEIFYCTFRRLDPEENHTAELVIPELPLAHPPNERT

binding result [1]: no binding (tested: 10 nM)
binding result [2]: no binding (tested: 10 nM)
binding result [3]: no binding (tested: 10 nM)
% of cells in the positive gate [4]: > 95%
% of cells in the positive gate [5]: > 95%
fluorescence intensity of the peptide spot [6]: 21
fluorescence intensity of the peptide spot [7]: 30.5
fluorescence intensity of the peptide spot [8]: 154
% of cells in the positive gate [9]: > 95%
% of cells in the positive gate [10]: > 95%
% of cells in the positive gate [11]: > 95%
% of cells in the positive gate [12]: > 95%
% of cells in the positive gate [13]: > 95%
% of cells in the positive gate (P5) [14]: > 95%
B1: G2D IgG (antibody, V domains shown)
VH: QVQLVESGGGLVQPGGSLRLSCSASGFDFSSYPMVWVRQAPGKGLEYVSSINSGGSWTGYGAAVKGRATISRDNSKNTLYLQMNSLRAEDTATYYCARAYGAATIDAWGQGTTVTVSS
VL: SYELTQPPSVSVSPGQTARITCSGGSIGYGWYQQKAPGQAPVTVIYYNDRRPSGIPERFSGSKSGTTNTLTISGVQAEDEADYYCGSADSSSTYTGIFGGGTKLTVL
notes: The back-substitutions (L46T, S66K, V71N in VL); also called humanized 2D; G2D antibody
